The text below walks through data of publication PMC2173330 (The Journal of Cell Biology, 2002).

The target of this experiment is T1, XSMC1 (Xenopus (endogenous in egg extracts), UniProt O93308 1-1232).
T1 sequence: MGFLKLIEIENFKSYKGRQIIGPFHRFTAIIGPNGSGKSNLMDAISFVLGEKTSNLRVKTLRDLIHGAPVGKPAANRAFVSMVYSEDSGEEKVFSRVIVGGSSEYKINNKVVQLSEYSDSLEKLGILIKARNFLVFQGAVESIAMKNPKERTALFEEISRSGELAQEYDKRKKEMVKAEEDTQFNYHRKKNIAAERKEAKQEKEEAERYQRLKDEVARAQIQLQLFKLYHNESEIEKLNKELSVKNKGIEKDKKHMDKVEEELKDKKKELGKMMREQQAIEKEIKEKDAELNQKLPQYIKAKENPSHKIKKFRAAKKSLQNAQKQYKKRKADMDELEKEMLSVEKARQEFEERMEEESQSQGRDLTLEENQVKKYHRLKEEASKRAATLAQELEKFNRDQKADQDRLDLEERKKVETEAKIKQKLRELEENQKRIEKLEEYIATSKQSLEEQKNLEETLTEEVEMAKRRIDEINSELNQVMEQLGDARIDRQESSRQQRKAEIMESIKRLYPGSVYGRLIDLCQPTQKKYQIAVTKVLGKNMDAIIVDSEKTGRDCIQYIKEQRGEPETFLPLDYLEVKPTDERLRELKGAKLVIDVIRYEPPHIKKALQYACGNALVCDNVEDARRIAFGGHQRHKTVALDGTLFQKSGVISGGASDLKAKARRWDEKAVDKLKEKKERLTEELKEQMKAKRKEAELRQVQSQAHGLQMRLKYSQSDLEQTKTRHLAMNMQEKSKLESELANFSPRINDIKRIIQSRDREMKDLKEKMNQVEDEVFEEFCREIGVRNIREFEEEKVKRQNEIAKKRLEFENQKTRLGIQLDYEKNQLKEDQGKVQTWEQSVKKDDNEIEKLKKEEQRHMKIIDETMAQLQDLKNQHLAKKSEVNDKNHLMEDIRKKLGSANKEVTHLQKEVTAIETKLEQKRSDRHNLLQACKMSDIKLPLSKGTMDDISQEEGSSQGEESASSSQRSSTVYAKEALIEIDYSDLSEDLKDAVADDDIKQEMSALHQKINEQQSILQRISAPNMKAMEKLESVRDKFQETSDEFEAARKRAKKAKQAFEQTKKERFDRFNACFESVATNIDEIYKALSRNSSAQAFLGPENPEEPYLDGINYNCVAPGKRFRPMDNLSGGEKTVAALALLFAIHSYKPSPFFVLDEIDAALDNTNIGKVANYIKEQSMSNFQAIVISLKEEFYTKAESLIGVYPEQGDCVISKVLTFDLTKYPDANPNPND
The experiment is described as follows: rotary-shadowing electron microscopy.

B1: XSMC3 (natural protein)
chain: MYIKQVIIQGFRSYRDQTIVDPFSSKHNVIVGRNGSGKSNFFYAIQFVLSDEFSHLRPEQRLALLHEGTGPRVISAFVEIIFDNSDNRLPIDKEEVSLRRVIGAKKDQYFLDKKMVTKNDVMNLLESAGFSRSNPYYIVKQGKINQMATAPDSQRLKLLREVAGTRVYDERKEESISLMKETEGKRDKINELLKYIEERLHTLEEEKEELAQYQKWDKMRRALEYTIYNQELNETRAKLDELSSKRETSGEKSRQLRDAQQDARDKMEEIERQVRELKSKISAMKEEKEQLSSERQEQIKQRTKLELKTKDLQDELAGNSEQRKRLLKERQKLLEKIEEKQKELAETEPKFSSVKQKEESGIARLAQATQERTDLYAKQGRGSQFTSKEERDKWIKKELKSLDQAINDKKRQIAAINKDLEETEVNKEKNLEQYTKLDQDLNEVKTRVEELDKKYYEVKNKKDELQSERNYLWREENAEQQSLAAKREDLEKKQQLLRAATGKAILNGIDSINKVLEHFRRKGINQHVINGYHGIVMNNFDCEPAFYTCVEVTAGNRLFYHIVESDEVSTKILMEFNKMNLPGEVTFLPLNKLDVRDTAYPETNDAIPMISKLRYNLRFDKAFKHVFGKTLICRSMEVSTQLARAFTMDCITLEGDQVSHRGALTGGYYDTRKSRLELQKDVRKVEDELHALEAKLNENLRRNIERINNEIDQLMNQMQQIETQQRKFKASRDSILSEMKMLKEKRQQSEKTFMPKQRSLQSLEASLHAMESTRESLKAELGTDLLSQLSLEDQKRVDALNDEIRQLQQENRQLLNERIKLEGTITRVETYLNENLRKRLDQVEQELNELRETEGGTVLTATTSELEAINKRVKDTLARSEGLDITIDKTEVESKDLVKSMDRWKNMEKDHMDAINHDTKELEKMTNRQGMLLKKKEECMKKIRELGSLPQEAFEKYQTLSLKQLFRKLEQCNTELKKYSHVNKKALDQFVNFSEQKEKLIKRQEELDRGHKSIMELMNVLELRKYEAIQLTFKQVSKNFSEVFQKLVPGGKATLVMKKGDVEGSQSQDEGEGSTQSSVPSVDQFTGVGIRVSFTGKQAEMREMQQLSGGQKSLVALALIFAIQKCDPAPFYLFDEIDQALDAQHRKAVSDMIMELASHAQFITTTFRPELLESADKFYGVKFRNKVSHIDVITAEQAKDFVEDDTTHG
Regarding B1, the binding result is recorded as “binds”.
